From US20190338048A1
Read-outs that look alike come from different tables or passages of the source.

Key:
[1] = molecular target: Recombinant human IL-17A (human) (UniProt Q16552); experiment: SPR
[2] = molecular target: Recombinant human IL-17A (human) (UniProt Q16552); experiment: SPR, ProteOn XPR36
[3] = molecular target: Recombinant human IL-17A (human) (UniProt Q16552); experiment: SPR as for KD
[4] = molecular target: Pertuzumab kappa light chain V133D (L2), N-terminal HA tag; experiment: LCCA, SPR of light chain tags
[5] = molecular target: Pertuzumab kappa light chain V133D (L2), N-terminal HA tag; experiment: LCCA, SPR of light chain tags; remark: listed apart in the source
[6] = molecular target: Pertuzumab kappa light chain S176V (L2), N-terminal HA tag; experiment: LCCA, SPR of light chain tags
[7] = molecular target: Pertuzumab kappa light chain Q124E_Q160E_T180E (L2), N-terminal HA tag; experiment: LCCA, SPR of light chain tags
[8] = molecular target: Pertuzumab kappa light chain Q124E_Q160E_T180E (L2), N-terminal HA tag; experiment: LCCA, SPR of light chain tags; remark: listed apart in the source
[9] = molecular target: Pertuzumab kappa light chain Q124E_Q160E_T180E (L2), N-terminal HA tag; experiment: LCCA, SPR of light chain tags; remark: listed apart in the source
[10] = molecular target: CAT-2200 lambda light chain S176K_Y178K (L1), N-terminal FLAG tag; experiment: LCCA, SPR of light chain tags
[11] = molecular target: CAT-2200 lambda light chain S176K_Y178L (L1), N-terminal FLAG tag; experiment: LCCA, SPR of light chain tags
[12] = molecular target: Recombinant HER2 protein (HER2-ECD) (UniProt P04626); experiment: SPR
[13] = molecular target: Recombinant HER2 protein (HER2-ECD) (UniProt P04626); experiment: SPR, ProteOn XPR36
[14] = molecular target: Recombinant HER2 protein (HER2-ECD) (UniProt P04626); experiment: SPR as for KD

CAT-2200 Fab heterodimer (H1L1) with H1 K145T_V177D_S188D and L1 S176K_Y178K
Kd [1]: 0.27 nM

CAT-2200 Fab heterodimer (H1L1) with H1 K145T_V177D_S188D and L1 S176K_Y178R
Kd [1]: 0.27 nM

CAT-2200 Fab heterodimer (H1L1) with H1 L143K and L1 K129T_V133D
Change in KD of H1L1 Fab vs wild type, -(log(KD design)-log(KD wt)) [1]: 0.03
Kd [1]: 0.26 nM

CAT-2200 Fab heterodimer H1 L143E_K145T_Q179E / L1 E124Q_T131R
Change in KD of H1L1 Fab vs wild type [1]: -0.03
Kd [1]: 0.29 nM

CAT-2200 Fab heterodimer H1 L143K / L1 K129T_V133D
Change in KD of H1L1 Fab vs wild type [1]: 0.03
Kd [1]: 0.26 nM

CAT-2200 Fab heterodimer H1L1 of design 10652-10755 (H1 L143E_K145T, L1 E124R)
Kd [1]: 0.28 nM

CAT-2200 Fab heterodimer H1L1 with H1 F174G and L1 T116F_S176F
Change in KD of H1L1 Fab vs wild type [1]: 0.08
Kd [1]: 0.23 nM

CAT-2200 Fab heterodimer H1L1 with H1 K145T_S188E and L1 Y178K
Change in KD of H1L1 Fab vs wild type [1]: -0.1
Kd [1]: 0.34 nM

CAT-2200 Fab heterodimer H1L1 with H1 K145T_V177D_S188D and L1 S176K_Y178K
Change in KD of H1L1 Fab vs wild type [1]: 0
Kd [1]: 0.27 nM

CAT-2200 Fab heterodimer H1L1 with H1 K145T_V177D_S188D and L1 S176K_Y178R
Change in KD of H1L1 Fab vs wild type, -(log(KD design)-log(KD wt)) [2]: 0.01
Kd [2]: 0.27 nM

CAT-2200 Fab heterodimer H1L1 with H1 K145T_V177T_S188E and L1 Y178K
Change in KD of H1L1 Fab vs wild type, -(log(KD design)-log(KD wt)) [2]: 0.11
Kd [2]: 0.21 nM

CAT-2200 Fab heterodimer H1L1 with H1 L143D_K145T and L1 E124Q_T131K
Change in KD of H1L1 Fab vs wild type [1]: 0.1
Kd [1]: 0.22 nM

CAT-2200 Fab heterodimer H1L1 with H1 L143D_K145T and L1 E124Q_T131K_V133S
Change in KD of H1L1 Fab vs wild type [1]: -0.08
Kd [1]: 0.33 nM

CAT-2200 Fab heterodimer H1L1 with H1 L143D_K145T and L1 E124Q_T131R
Change in KD of H1L1 Fab vs wild type [1]: -0.1
Kd [1]: 0.35 nM

CAT-2200 Fab heterodimer H1L1 with H1 L143E_K145T_Q179E and L1 E124Q_T131R
Change in KD of H1L1 Fab vs wild type, -(log(KD design)-log(KD wt)) [1]: -0.03
Kd [1]: 0.29 nM

CAT-2200 Fab heterodimer H1L1 with H1 S186R and L1 K129T_S180E
Change in KD of H1L1 Fab vs wild type, -(log(KD design)-log(KD wt)) [1]: 0.03
Kd [1]: 0.26 nM

CAT-2200 Fab heterodimer H1L1 with H1 V177I_S188K and L1 V133L_S176D_Y178E (Kabat)
Kd [1]: 0.22 nM

CAT-2200 Fab heterodimer H1L1 without pairing substitutions (H1L1 of Mab design sets 10771-11335 and 10771-11360)
Change in KD of H1L1 Fab vs wild type, -(log(KD design)-log(KD wt)) [1]: 0

CAT-2200 Fab heterodimer H1L1 without pairing substitutions (wild-type H1 and L1)
Change in KD of H1L1 Fab vs wild type, -(log(KD design)-log(KD wt)) [1]: 0

CAT-2200 Fab heterodimer, H1 S186R / L1 K129T_S180E
Change in KD of H1L1 Fab vs wild type, -(log(KD design)-log(KD wt)) [1]: -0.088
Kd [1]: 0.26 nM

CAT-2200 Fab heterodimer, H1 S188K / L1 S176E_Y178E
Change in KD of H1L1 Fab vs wild type, -(log(KD design)-log(KD wt)) [1]: -0.24
Kd [1]: 0.36 nM

CAT-2200 Fab heterodimer, H1 V177I_S188K / L1 V133I_S176D_Y178E
Kd [2]: 0.23 nM
Change in KD of H1L1 Fab vs wild type [1]: 0.08

CAT-2200 Fab heterodimer, H1 V177I_S188K / L1 V133L_S176D_Y178E
Kd [2]: 0.22 nM
Change in KD of H1L1 Fab vs wild type [1]: 0.08

CAT-2200 Fab with H1 K145T_S188E and L1 Y178K
Change in KD of H1L1 Fab vs wild type [1]: -0.22
Kd [1]: 0.34 nM

CAT-2200 Fab, H1 A125R_S186R / L1 S122D_K129T_S180E
Change in KD of H1L1 Fab vs wild type, -(log(KD design)-log(KD wt)) [1]: -0.0041 log(KD)
Kd [1]: 0.21 nM

CAT-2200 Fab, H1 K145T_S188E / L1 Y178K
Change in KD of H1L1 Fab vs wild type [1]: -0.22
Kd [1]: 0.34 nM

CAT-2200 Fab, H1 K145T_V177T_S188E / L1 Y178K
Kd [2]: 0.21 nM
Change in KD of H1L1 Fab vs wild type, -(log(KD design)-log(KD wt)) [3]: 0.11 log units

CAT-2200 Fab, H1 L124E_V190D / L1 L135K_Y178F
Change in KD of H1L1 Fab vs wild type, -(log(KD design)-log(KD wt)) [3]: -3.56 log units

CAT-2200 Fab, H1 L124E_V190D / L1 V133I_L135K
Change in KD of H1L1 Fab vs wild type, -(log(KD design)-log(KD wt)) [3]: -3.56 log units

CAT-2200 Fab, H1 L124E_V190D / L1 V133I_L135K_Y178F
Change in KD of H1L1 Fab vs wild type, -(log(KD design)-log(KD wt)) [3]: -3.56 log units

CAT-2200 Fab, H1 L143D_K145T / L1 E124Q_T131K
Kd [2]: 0.22 nM
Change in KD of H1L1 Fab vs wild type, -(log(KD design)-log(KD wt)) [3]: 0.1 log units

CAT-2200 Fab, H1 L143D_K145T / L1 E124Q_T131R
Change in KD of H1L1 Fab vs wild type [1]: -0.22
Kd [1]: 0.35 nM

CAT-2200 designed Fab heterodimer, H1 K145T_S188E / L1 Y178K
Change in KD of H1L1 Fab vs wild type, -(log(KD design)-log(KD wt)) [1]: -0.22
Kd [1]: 0.34 nM

CAT-2200 designed Fab heterodimer, H1 L143D_K145T / L1 E124Q_T131K_V133S
Change in KD of H1L1 Fab vs wild type, -(log(KD design)-log(KD wt)) [1]: -0.19
Kd [1]: 0.33 nM

CAT-2200 designed Fab heterodimer, H1 Q179K / L1 K129T_S180E
Change in KD of H1L1 Fab vs wild type, -(log(KD design)-log(KD wt)) [1]: -0.056
Kd [1]: 0.24 nM

CAT-2200 designed Fab heterodimer, H1 S186R / L1 K129T_S180E
Change in KD of H1L1 Fab vs wild type, -(log(KD design)-log(KD wt)) [1]: -0.088
Kd [1]: 0.26 nM

CAT-2200 designed Fab, H1 A125R_S186R / L1 S122D_K129T_S180E
Change in KD of H1L1 Fab vs wild type [1]: -0.0041
Kd [1]: 0.21 nM

Pertuzumab Fab heavy chain L143S_S186K_S188T (H2), ABD2-His6 tagged
H2L2:H2L1 normalized median ratio [4]: 63%
H2L2:H2L1 normalized median scalar value ln(r1/f1) [4]: 0.54
H2L2:H2L1 normalized median ratio [5]: 64%
H2L2:H2L1 normalized median scalar value ln(r1/f1) [5]: 0.58

Pertuzumab Fab heavy chain S186I_S188W (H2), ABD2-His6 tagged
H2L2:H2L1 normalized median ratio [6]: 40%
H2L2:H2L1 normalized median scalar value ln(r1/f1) [6]: -0.39

Pertuzumab Fab heavy chain S186L_S188W (H2), ABD2-His6 tagged
H2L2:H2L1 normalized median ratio [6]: 40%
H2L2:H2L1 normalized median scalar value ln(r1/f1) [6]: -0.39

Pertuzumab Fab heavy chain S186R (H2), ABD2-His6 tagged
H2L2:H2L1 normalized median ratio [7]: 89%
H2L2:H2L1 normalized median scalar value ln(r1/f1) [7]: 2.07
H2L2:H2L1 normalized median ratio [8]: 97%
H2L2:H2L1 normalized median scalar value ln(r1/f1) [8]: 3.46
H2L2:H2L1 normalized median ratio [9]: 96%
H2L2:H2L1 normalized median scalar value ln(r1/f1) [9]: 3.29
H2L2:H2L1 normalized median ratio [10]: 4%
H2L2:H2L1 normalized median ratio [11]: 11%

Pertuzumab Fab heterodimer, H2 L45P_L143E_K145T_Q179E / L2 P44F_Q124R_T178R
Kd [12]: 5.9 nM

Pertuzumab Fab heterodimer, H2 Q39E_L143E_K145T_Q179E / L2 Q38R_Q124R_T178R
Change in KD of H2L2 Fab vs wild type, -(log(KD design)-log(KD wt)) [12]: 0.023
Kd [12]: 7.4 nM

Pertuzumab Fab with H2 L45P_L124R_Q179K and L2 P44F_V133G_S176D_T180E
Change in KD of H2L2 Fab vs wild type [12]: 0.065
Kd [12]: 6.7 nM

Pertuzumab Fab with H2 Q39E_L124R_Q179K and L2 Q38R_V133G_S176D_T180E
Change in KD of H2L2 Fab vs wild type [12]: 0.016
Kd [12]: 7.5 nM

Pertuzumab Fab, H2 L45P_L143R / L2 P44F_Q124E_V133D
Kd [12]: 5.9 nM

Pertuzumab Fab, H2 L124R / L2 V133G_S176D
Kd [13]: 8.28 nM
Change in KD of H2L2 Fab vs wild type, -(log(KD design)-log(KD wt)) [14]: -0.01 log units

Pertuzumab Fab, H2 L143K / L2 Q124E_V133D
Kd [13]: 7.41 nM
Change in KD of H2L2 Fab vs wild type, -(log(KD design)-log(KD wt)) [14]: 0.04 log units

Pertuzumab Fab, H2 Q39E_L143R / L2 Q38R_Q124E_V133D
Kd [12]: 7.5 nM

Pertuzumab Fab, H2 S186K / L2 V133D
Kd [13]: 8.01 nM
Change in KD of H2L2 Fab vs wild type, -(log(KD design)-log(KD wt)) [14]: 0 log units

Pertuzumab Fab, H2 S188K / L2 S131D_V133G_T178F
Kd [13]: 8.46 nM
Change in KD of H2L2 Fab vs wild type, -(log(KD design)-log(KD wt)) [14]: -0.02 log units

Pertuzumab Fab, H2 S188K / L2 S176E_T178E
Kd [13]: 8.15 nM
Change in KD of H2L2 Fab vs wild type, -(log(KD design)-log(KD wt)) [14]: 0 log units
